# Test: soluble on expression in E. coli; label from the status in PepcDB or PDB records
row,Sequence,soluble on expression in E. coli
1,MGSDKIHHHHHHMEDLYLECPGCDEVTLHTVLKEKESKKHLKITVKCQECGTVHDIEKNFKLKDIKIVISRYDESEQSVLQIATDEILKVEDVILAFDESVEITALETEDSRRVSSSAAQDLKMIWARSIDVPKKVGISINSRESTYSFNILVPQDYVFEEKKIYRAGRDFFRIKQIKTEKGNFSRELARKIKRIYGEPVKPLRDYTDLTDYML,not soluble
2,MAHHHHHHMGKRDLQKEKQQELAAIWGSEVQGDARFPKRRRAAQKQGLGAVENNDDVDTDVLSDIVSDAGSITSKHSDTAKKETRKTAKKKSTNYRLHCFVEPGTELNAVRTVFEAYEPKVEIRTAQKGNLLNKSQFAVLTFRNKAMALHAVKKLDGTNQRDLLGVSSLKLNLMLTRQQSKIARKTFNRKIRQEKERNQLMEEQADLAFIRNFLKQHSGAKKDKQNGKALSLS,soluble
3,MGSDKIHHHHHHMGEAIEVAEGALWMRLPLPMKLDHVNVYAFDEGDSWTVVDTGMSSNKTRRIWEQLMAGPLGGKPVRRVVVTHHHPDHIGNAGWFQSEHGAELVTTRTAWLFARMLTLDVQESWPEETLAYYRSAGMDPEVYDTRKADRPFNFADTVYPMPLGFTRVQQGDVFRMGGRDWDIHMGNGHAPEHATLWSRDDNLVLTGDQVLSSISPNIGVYATEPEADPLAEWLEACERLAALARPEHLALGGHKLPFTRLPLRMRQLIDNHHGALERLMEFLETPKSAAECFPTLFKRTIGPGEYGLALVEAVAHVNHLYRTGQVTRTRRSDEAWVYQRR,not soluble
4,MVMRGNKMRGDKKIFKKRVERFQELLKENNIDGAVIRTLSSFIYFTGTKWLRPSLLIPAEGEPRVLVVKGEAELFKERSWIEDVVEYQKAEELMLTVVKWIRENEMKRVGLEFGIERDAYLIFYKIFLRLNPTVEVVDILDLTMKLRMIKDEWELDNIRKAGKIALKGMRVAEEEIKPGRTELEIAAEVTRELMLNGSEDPKVYVSVTPRAHAEPFRDLKVPENGVVTVVIGTDWNHYYANMARTFIIGDPGERVKKAIEVKKEAIKLALEETKVGVPISTVEKKIEQFFKERGFGDYHLSGYTHGVGLLIEEPPIATIVVPQRAAKIQENMVLSIIHPPLMLPEGAIKYENTYIVKKDGLERVT,soluble
5,MDGSMGEGGGQILRTAVALAAVLGRPLRIVNIRAKRRPPGLRPQHLTAVRAVAAISGGRLRGAEVGSTSLEFTPGRVRGGRYRFDVGTAGSVALIIQALAPLLAYSDSPVEVELTGGTDVPMAPTIDYMREVFASILAMLGYEIEIRVLRRGHYPRGGGRVVVRVPDPPGGFRARSFVERGPLKGVYVRSHAVKLPGSIAERQARSAASLVRERLGVDPIVEIEAYKPHRDPHLGPGTGVLVWAVFGETVMGGDSIGKKGKPAEVVGREAAESLLEDMATGAALDRHMSDMAPVYLALAGGVSTVFGARLTGHASTILELLRIMVDGFEYRILEGGLERPFKAELRGAGVSPR,soluble
6,QDTSPDTLVVTANRFEQPRSTVLAPTTVVTRQDIDRWQSTSVNDVLRRLPGVDITQNGGSGQLSSIFIRGTNASHVLVLIDGVRLNLAGVSGSADLSQFPIALVQRVEYIRGPRSAVYGSDAIGGVVNIITTRDEPGTEISAGWGSNSYQNYDVSTQQQLGDKTRVTLLGDYAHTHGYDVVAYGNTGTQAQTDNDGFLSKTLYGALEHNFTDAWSGFVRGYGYDNRTNYDAYYSPGSPLLDTRKLYSQSWDAGLRYNGELIKSQLITSYSHSKDYNYDPHYGRYDSSATLDEMKQYTVQWANNVIVGHGSIGAGVDMQMQMTTPGTGYVEDGYDQRNTGIYLTGLQQVGDFTFEGAARSDDNSQFGRHGTWQTSAGWEFIEGYRFIASYGTSYKAPNLGQLYGFYGNPNLDPEKSKQWEGAFEGLTAGVNWRISGYRNDVSDLIDYDDHTLKYYNEGKARIKGVEATANFDTGPLTHTVSYDYVDARNAITDTPLLRRAKQQVKYQLDWQLYDFDMGMTMQYLGTRYDKDYSSYPYQTVKMGGVSLWDLAVAYPVTSHLTVRGKIANLFDKDYETVYGYQTAGREYTLSGSYTF,soluble
7,MRARGRLLPRLLRTNIQSSRFLVSLGHTNDVMSSHLCSLCHLDHHPHPTPPSSSSSSSSLSLCAWLSCVCVCVCVYMHTTYHTGLSTYQCSILQPPPSPSLSTHTFLCVYCVLAPSSPPCIMVDTSSSAPASASPAITTSAAATTPVVILVVGMAGTGKTTLVHRMQHYAHTNGIRSYFINLDPAVTHTPYNVNIDIRDSVRYGEVMKNYRLGPNGAIMTSLNLFATKIHQVVSLLEKKEEMLDWIIVDTPGQIEVFTWSASGQLMADSFGAVFPTVLLFVADTVRCVSSPQTFVSTMLYSSGIMLKQQVPLVVVFNKTDVVSADSVIAWMRDNDALDEAVTNPHRSNRSRRAVSGEPGDGEDADWRGEGTRIGAAALGSQDALLANQGSGYAGTLAQSMSLFLHEFYEDLPYAAVSAASGAGMSELAASIERGKQQALEAKAERSAH,not soluble
8,MPYYVYLLACGKHGTLYLGVTNDLVRRVHEHRSKATPGFSEHYGVGRLVWFEIYHDAITAITREKQLKKWRRDWKVRLIENQNPDWVDLYPGICR,not soluble
9,MAHHHHHHMLCAGKGRVEATQDVARQFLRKCVERLEKNEKDMAVKFDITMTMVSLRCADQCCDLLKPGASYEKMMMGSSPVYGPCLLGLETKVHKTASECVSSFDAGLKNAKEDKEIVAAFFVLKTIKKTGAEEEVHLSSLCIALCGETVAHKTDIRDKAASSPHRLFRYAVDGACVTVSGLWIVSKDVDAREGLEVERKMREVKNQPPRSGNVKRFVDYTYKEIMRQKEKLESATGSEKKTREAQIERMEEMVKDAKELLTSPENTRPKGYSMGR,not soluble
10,MGSDKIHHHHHHSSDYFTTNPEVLEAIGGKVPVTINGKFPEKYFKKNATVEVTPVLRWKGGEAKGQPAVFQGEKVEGNNQTIAYKAGGSYTMKASFDYVPEMANSELYLDFKITKGKKSYTIPSVKIADGVIATSELPTAASSNASYANDAFQRIIKDAQTANIMFLIQQANLRNSELNSDDIKEFHKKVAEINADTKNYKLNNIEISAYASPDGGVELNTGLAENREANTEKYMERQLKKGKIDTNLDAKYTAQDWEGFQELVSKSNLQDKDLILRVLSMYNDPEQREAEIKNISSVYKTLADEILPQLRRARLTANYDIIGRSDDEINEAFNSDPKVLSVEELLYAATLTNDNARKEAIFTKTTQLYPNDFRAYNNLGELAFAAGDAAKAESYFKQAASKNANAPEVNANLGLCELVKGNVAAAETYLGKATGANAAGEALGNLYIKQGQYDRAVNSFGDAKTNSAAQAQILAKDYNKAKATLSAIKNPDAMTDYLMAIVGARTNNASLVSSSIKSAIAKDPSMAEKAANDREFAKYADAIK,not soluble
11,SLISYCSDSGDENISCTKKMVVTVTVEGEQLPGEESLLFLNSATDMTVNNGTSVQFSPLRITTSRSAVRYRYPLFYVQNYNAKPYEATVKGSLLNQCNADFNADTATCGLAYDAAGKAIPYSQGFCCDCSMCQTLGLCQPDARANAACNVFGKYTTASCLRFAQRWYSGYTIGGYMTWYTVNLTLSRNVSDSGGAGAAEKVVMRLSPSNNGEVAGEGWDVMARIVGTYAPVDQPLDLTSRMLFAPAIPPNDARVQAGAAEWLLLPTNLVTLDGRECDKVGVSYEAFASQGNKCNLRPGSCLSSQLEDYRTADLQRIAAGNKGQYMATSFGDFNLENDAATSPYISYLAASPAATMISITVSADDLEYTVGLASGKIISTDMNKPTLQAGTADGVMTVMVRNTAAVTGRLVVGTLNCSDGVF,not soluble
12,MKAVIFIMDGLGDRPNKDGNTPLKEAKTPVMDKMAKDGICGLMNAVDVGVRPGSDTAHLAILGYDPYTTYTGRGPFEACGVGVTVKPGDIAFRCNFSSVNENFIVTDRRAGRIEDTSELEKELDGLKIDDIDIIFKESGGYRAALVLRGPGLSDKISDADPKKEGKRVKEIHPLDNSKEAKKTAEIVNKLLKIAYEKLDKHPVNEERRKQNLPVANMIVPRGVGQVPEIMQFSEKTGLKGACIAGTGLIKGIAKMVGLDVIDVEGCDGTPNSDLMAKACAIVETLKDYDFILVNVKGADEAGHDGNYELKKEIIEKIDEMLDYITKNIDKDEVYIAMSGDHSTPIEEMDHSADPLPILIWGKSVRVDDVEKFDEFSTYKGGLNWIKGTNIMPILMDLMSIAKKYGA,not soluble
13,MIIKRTPQAASPLASWLSYLENLHSKTIDLGLERVSLVAARLGVLKPAPFVFTVAGTNGKGTTCRTLESILMAAGYKVGVYSSPHLVRYTERVRVQGQELPESAHTASFAEIESARGDISLTYFEYGTLSALWLFKQAQLDVVILEVGLGGRLDATNIVDADVAVVTSIALDHTDWLGPDRESIGREKAGIFRSEKPAIVGEPEMPSTIADVAQEKGALLQRRGVEWNYSVTDHDWAFSDAHGTLENLPLPLVPQPNAATALAALRASGLEVSENAIRDGIASAILPGRFQIVSESPRVIFDVAHNPHAAEYLTGRMKALPKNGRVLAVIGMLHDKDIAGTLAWLKSVVDDWYCAPLEGPRGATAEQLLEHLGNGKSFDSVAQAWDAAMADAKAEDTVLVCGSFHTVAHVMEVIDARRSGGK,soluble
14,MSLAEFSADLCLFDLDGTIVSTTVAAEKAWTKLCYEYGVDPSELFKHSHGARTQEVLRRFFPKLDDTDNKGVLALEKDIAHSYLDTVSLIPGAENLLLSLDVDTETQKKLPERKWAIVTSGSPYLAFSWFETILKNVGKPKVFITGFDVKNGKPDPEGYSRARDLLRQDLQLTGKQDLKYVVFEDAPVGIKAGKAMGAITVGITSSYDKSVLFDAGADYVVCDLTQVSVVKNNENGIVIQVNNPLTRAEGHHHHHH,not soluble
15,MATKKDVHDLFLNHVNSNAVKTRKMMGEYIIYYDSVVIGGLYDNRLLVKATKSVRHQLQDNTLVSPYPGAKEMILIPDITEAINLTNLFELIKNDLKN,not soluble
16,MDDSDDEYSRSHGETLTFVDPEDDGVSIGNTQDSQFAYEQFSVPTQSSQATDLLPGGTDGTTNDLPFHDVEDDESDSEKSLTEEQQQQKLPEHACRYCGISDPLCVAKCTVCRKWFCNSNDGTSGGHIVHHMVRSQHKEAYTHKDSPCGDTQLECYRCGSKNVFNLGFIPGKKDQVVVIICRTPCASIAFQNDDNWSPEDWKSVIAEKQLLSWIVNVPSEEQVARARKITATQAVRMEELWRDHPEATVDDLNKPGLDREPDHVQLRYVDAHHYSKVFRPLVAIEAEYDRRVKESASQAVGTVRWEQGLRQSVLAFFHLPQFADGVMKLAKGDELRLKHSQTVDGSEWTKIGSVFKIPDNHGDEVGIEIRGAVDKSVMESRIMFTVDVVWNATTFERQYKALAALLNDSKAISPYLYQKLLGHPAEEMMLKFDLPRRLSVAGLPELNSSQMQAVKQVLTRPLSLIQGPPGTGKTVVSATIVYHLVQKTEGNVLVCSPSNIAVDHLAEKIHKTGLKVVRLCARSREHSETTVPYLTLQHQLKVMGGAELQKLIQLKDEAGELEFKDDLRYMQLKRVKEHELLAAADVICCTCSSAADARLSKIRTRTVLIDESTQATEPEILVSIMRGVRQLVLVGDHCQLGPVVICKKAAIAGLSQSLFERLVLLGIRPFRLQVQYRMHPVLSEFPSNVFYDGSLQNGVTENDRHMTGVDWHWPKPNKPAFFWHCSGSEELSASGTSFLNRTEAANVEKLVSKLIKAGVQPHQIGVITPYEGQRSFIVNYMHTQGTLNSKLYENVEIASVDAFQGREKDYIIVTCVRSNDILGIGFLSDPRRLNVAITRAKYGLVLVGNAKVLARHDLWHELINHYKSKEMLYEGPINALKPLNLALPKATIRTKNNIAGNANRFGIKRMQYTFNEYKSNDPSQPRLPPTYSNSQNLLSMSKLAQTFNKNVPIPAHMMDPNVYAAARNQKDRRRGDQRRPPPQAEAAMDLSQGMMSQQSQQYPPQGASSQSQYLLDGASSLSGWSQSQTTTTTTRHHHHRQNRNSQQQMSQDMDDIQQKMDDLLFSQDC,not soluble

# Reference: the DeepSol protein solubility set
